This experiment concerns the target T1, Flag-tagged mouse STAT3 (pXJ40-Flag-mSTAT3) (mouse, UniProt P42227 1-770, limits assumed, phosphorylated after leptin treatment (phospho-STAT3); the site is not given).
T1 construct: also called phospho-STAT3; Flag-tagged STAT3; not shown: Flag tag
The experiment can be described thus: coimmunoprecipitation.

T1 sequence (P42227 whole entry): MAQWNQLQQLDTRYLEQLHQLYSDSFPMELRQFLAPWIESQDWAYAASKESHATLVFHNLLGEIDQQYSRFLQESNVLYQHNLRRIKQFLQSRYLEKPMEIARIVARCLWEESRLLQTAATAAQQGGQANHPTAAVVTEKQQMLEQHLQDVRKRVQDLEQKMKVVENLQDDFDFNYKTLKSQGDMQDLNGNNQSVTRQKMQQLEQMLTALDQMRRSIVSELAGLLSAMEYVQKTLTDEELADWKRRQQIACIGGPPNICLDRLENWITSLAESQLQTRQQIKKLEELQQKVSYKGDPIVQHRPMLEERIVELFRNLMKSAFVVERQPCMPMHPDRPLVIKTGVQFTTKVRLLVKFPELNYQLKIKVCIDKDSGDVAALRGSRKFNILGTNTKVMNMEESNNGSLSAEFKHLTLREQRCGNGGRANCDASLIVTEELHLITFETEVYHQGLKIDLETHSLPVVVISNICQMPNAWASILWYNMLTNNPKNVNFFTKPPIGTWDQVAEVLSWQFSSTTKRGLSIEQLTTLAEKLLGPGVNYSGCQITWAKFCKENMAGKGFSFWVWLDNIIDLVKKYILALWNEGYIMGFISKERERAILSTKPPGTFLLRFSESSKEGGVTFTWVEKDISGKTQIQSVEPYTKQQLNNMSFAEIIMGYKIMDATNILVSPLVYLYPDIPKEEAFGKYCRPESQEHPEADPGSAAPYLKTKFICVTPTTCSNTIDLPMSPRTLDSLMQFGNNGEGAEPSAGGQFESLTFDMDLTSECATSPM

B1: FoxO1^(1-123) (other)
chain: MAEAPQVVETDPDFEPLPRQRSCTWPLPRPEFNQSNSTTSSPAPSGGAAANPDAAASLASASAVSTDFMSNLSLLEESEDFARAPGCVAVAAAAAASRGLCGDFQGPEAGCVHPAPPQPPPTG
Regarding B1, the binding result was “no binding”.

B2: FoxO1^(1-123)-(168-652) (other, UniProt Q9R1E0 1-123, looked up)
chain: MAEAPQVVETDPDFEPLPRQRSCTWPLPRPEFNQSNSTTSSPAPSGGAAANPDAAASLASASAVSTDFMSNLSLLEESEDFARAPGCVAVAAAAAASRGLCGDFQGPEAGCVHPAPPQPPPTGKAIESSAEKRLTLSQIYEWMVKSVPYFKDKGDSNSSAGWKNSIRHNLSLHSKFIRVQNEGTGKSSWWMLNPEGGKSGKSPRRRAASMDNNSKFAKSRGRAAKKKASLQSGQEGPGDSPGSQFSKWPASPGSHSNDDFDNWSTFRPRTSSNASTISGRLSPIMTEQDDLGDGDVHSLVYPPSAAKMASTLPSLSEISNPENMENLLDNLNLLSSPTSLTVSTQSSPGSMMQQTPCYSFAPPNTSLNSPSPNYSKYTYGQSSMSPLPQMPMQTLQDSKSSYGGLNQYNCAPGLLKELLTSDSPPHNDIMSPVDPGVAQPNSRVLGQNVMMGPNSVMPAYGSQASHNKMMNPSSHTHPGHAQQTASVNGRTLPHVVNTMPHTSAMNRLTPVKTPLQVPLSHPMQMSALGSYSSVSSCNGYGRMGVLHQEKLPSDLDGMFIERLDCDMESIIRNDLMDGDTLDFNFDNVLPNQSFPHSVKTTTHSWVSG
For B2, the binding result is reported as “no binding”.

(Values after US20110098218A1 (AGENCY FOR SCIENCE TECHNOLOGY AND RESEARCH, published 2011).)
